The values below are quoted from earlier work in article PMC3433420.

Among the targets are TNS3 (Homo sapiens) (UniProt Q68CZ2); SRC (Homo sapiens) (UniProt P12931); VAV1 (Homo sapiens) (UniProt P15498); TENC1 (Homo sapiens) (UniProt Q63HR2); PTPN11-N (Homo sapiens) (UniProt Q06124); SYK-NC (Homo sapiens) (UniProt P43405).
Holding throughout (conditions): cited from earlier work

VAV1 (Homo sapiens), sequence (P15498 666-770): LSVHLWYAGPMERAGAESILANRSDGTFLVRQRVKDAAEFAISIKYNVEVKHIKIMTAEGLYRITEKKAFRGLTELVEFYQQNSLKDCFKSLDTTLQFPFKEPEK
TNS3 (Homo sapiens), sequence (Q68CZ2 1167-1287): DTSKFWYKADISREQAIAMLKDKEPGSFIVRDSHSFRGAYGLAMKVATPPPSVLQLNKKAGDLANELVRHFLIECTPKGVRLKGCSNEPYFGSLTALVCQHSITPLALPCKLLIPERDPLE
TENC1 (Homo sapiens), sequence (Q63HR2 1135-1252): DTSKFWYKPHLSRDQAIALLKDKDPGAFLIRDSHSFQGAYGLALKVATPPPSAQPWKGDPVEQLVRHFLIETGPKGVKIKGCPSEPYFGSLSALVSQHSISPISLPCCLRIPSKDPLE

For the substance …pYWDQDPPE, in the data set with TNS3 (Homo sapiens), the apparent Kd (screen) was 1.29 µM.
With …pYLVPQQGF, the apparent Kd (screen) in the data set with SRC (Homo sapiens) was 0.757 µM; in the data set with VAV1 (Homo sapiens), 2 µM; in the data set with TENC1 (Homo sapiens), 2 µM.
Turning to …pYLIPQQGFd, the values for the apparent Kd (screen) with PTPN11-N (Homo sapiens) and with SYK-NC (Homo sapiens) were 0.379 µM and 0.611 µM, respectively.
